Results taken from US20230203182A1 (NAVROGEN, published 2023).

T1: human CD20 on Ramos cells (human, UniProt P11836 1-297)
T1 construct: whole, on cells; also called MS4A1
T1 sequence (looked up): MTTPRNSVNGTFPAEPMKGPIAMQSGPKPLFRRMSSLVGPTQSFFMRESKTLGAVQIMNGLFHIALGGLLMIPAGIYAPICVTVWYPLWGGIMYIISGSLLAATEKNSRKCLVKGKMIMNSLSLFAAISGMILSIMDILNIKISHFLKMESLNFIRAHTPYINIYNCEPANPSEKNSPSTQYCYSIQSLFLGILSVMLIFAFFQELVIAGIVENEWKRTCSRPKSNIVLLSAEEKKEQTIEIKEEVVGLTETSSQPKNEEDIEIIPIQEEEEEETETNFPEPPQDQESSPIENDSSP


Tests used:
[1] = molecular target: T2, human CA125/MUC16 protein (human, UniProt Q8WXI7 1-14451, limits assumed); assay: cell-based or functional assay
[2] = molecular target: T1, human CD20 on Ramos cells; assay: cell-based fluorescent saturation binding on Ramos cells, Jurkat background subtracted, one-site nonlinear regression
[3] = molecular target: T2, human CA125/MUC16 protein; assay: ELISA, CA125-coated (15 KU/mL) and CD20 peptide-coated wells, biotinylated antibody
Excerpt: FIG. 4. […] Each of these antibodies were biotinylated and retested for CD20 and CA125 binding via ELISA. Briefly, antibodies were biotinylated using the EZ-Link™ Sulfo-NHS-Biotin (ThermoScientific) following the manufacturer’s instructions. Biotinylated antibodies where quantified by Nanodrop and validated for signal intensity using an anti-IgG ELISA capture assay to measure the signal intensity for each antibody. […] Wells were washed and then secondarily probed with streptavidin-HRP and quantified using TMB substrate as described above on a Varioskan plate reader at 450 nm. […] Any signal greater than a 20% decrease in CA125 was considered positive.

[4] = molecular target: T3, human CD16a (Fc-gamma activating receptor FCGR3A), biotinylated (human, UniProt P08637 17-208, limits assumed, biotinylated); assay: CD16a ELISA, percentage of binding with CA125 versus no CA125 (FIG. 7A)
T3 construct: Soluble biotinylated probe in ELISA; construct not described; also called CD16a-biotin; Fc receptor

[5] = molecular target: T2, human CA125/MUC16 protein; assay: direct binding ELISA, CA125-coated wells, biotinylated C4B

T3 sequence (P08637 17-208 limits assumed): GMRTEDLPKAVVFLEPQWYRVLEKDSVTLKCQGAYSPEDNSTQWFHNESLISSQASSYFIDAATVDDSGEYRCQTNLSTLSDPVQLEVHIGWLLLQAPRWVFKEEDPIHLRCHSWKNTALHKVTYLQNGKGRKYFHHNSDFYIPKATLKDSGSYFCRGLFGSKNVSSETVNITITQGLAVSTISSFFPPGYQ

| suppression of CDC activity by CA125 (Daudi cells) [1] [%] | percent decrease in CA125 binding vs parental (ratio of CD20 to CA125 binding), selection criterion [3] [%] | other results | Binder |
| --- | --- | --- | --- |
| 32 |  | Kd [2]: 20.6 nM | rituximab (parental antibody) (antibody, human IgG1, kappa, IgG1-type anti-CD20 antibody; Biotinylated when used as probe in the CA125 and CD20-peptide ELISAs; also called RTX; RTX-WT) heavy: not shown light: QIVLSQSPAILSASPGEKVTMTCRASSSVSYIHWFQQKPGSSPKPWIYATSNLASGVPVRFSGSGSGTSYSLTISRVEAEDAATYYCQQWTSNPPTFGGGTKLEIKRTVAAPSVFIFPPSDEQLKSGTASVVCLLNNFYPREAKVQWKVDNALQSGNSQESVTEQDSKDSTYSLSSTLTLSKADYEKHKVYACEVTHQGLSSPVTKSFNRGEC |
| ≤ 15 | > 20 |  | RTX-MT clone 199 (antibody, human IgG1, kappa, V domains shown, Biotinylated in the ELISAs) VH: QVQLQQPGAELVKPGASVKMSCKASGYTFTSYNMHWVKQTPGRGLEWIGAIYPGNGDTSYNQKFKGKATLTADKSSSTAYMQLSSLTSEDSAVYYCARSTYYGGDWYLNVWGAGTTVTVSA VL: QIVLSQSPAILSASPGEKVTMTCRASSSVSYIHWFQQKPGSSPKPWIYATSNLASGVPVRFSGSGSGTSYSLTISRVEAEDAATYYCQQWTSNPPTFGGGTKLEIKR |
| ≤ 15 | > 20 |  | RTX-MT clone 198 (antibody, human IgG1, kappa, V domains shown, Biotinylated in the ELISAs) VH: QVQLQQPGAELVKPGASVKMSCKASGYTFTSYNMHWVKQTPGRGLEWIGAIYPGNGDTSYNQKFKGKATLTADKSSSTAYMQLSSLTSEDSAVYYCARSTYYGGDWCFNVWGAGTTVTVSA VL: QIVLSQSPAILSASPGEKVTMTCRASSSVSYIHWFQQKPGSSPKPWIYATSNLASGVPVRFSGSGSGTSYSLTISRVEAEDAATYYCQQWTSNPPTFGGGTKLEIKR |
| ≤ 15 | > 20 |  | RTX-MT clone 148 (antibody, human IgG1, kappa, V domains shown, Biotinylated in the ELISAs) VH: QVQLQQPGAELVKPGASVKMSCKASGYTFTSYNMHWVKQTPGRGLEWIGAIYPGNGDTSYNQKFKGKATLTADKSSSTAYMQLSSLTSEDSAVYYCARSTYFGGDWYFNVWGAGTTVTVSA VL: QIVLSQSPAILSASPGEKVTMTCRASSSVSYIHWFQQKPGSSPKPWIYATSNLASGVPVRFSGSGSGTSYSLTISRVEAEDAATYYCQQWTSNPPTFGGGTKLEIKR |
| ≤ 15 |  | binding result [4]: binds | RTX-MT clone 166 (antibody, human IgG1, kappa, Biotinylated in the ELISAs; also called N109D+P131S+S136Y; triple mutant RTX-MT clone 166) heavy: not shown light: QIVLSQSPAILSASPGEKVTMTCRASSSVSYIHWFQQKPGSSPKPWIYATSNLASGVPVRFSGSGSGTSYSLTISRVEAEDAATYYCQQWTSNPPTFGGGTKLEIKRTVAAPSVFIFPPSDEQLKSGTASVVCLLNNFYPREAKVQWKVDNALQSGNSQESVTEQDSKDSTYSLSSTLTLSKADYEKHKVYACEVTHQGLSSPVTKSFNRGEC |
|  |  | binding result [4]: binds | RTX-MT N109D+S136Y (antibody, human IgG1, kappa) heavy: not shown light: QIVLSQSPAILSASPGEKVTMTCRASSSVSYIHWFQQKPGSSPKPWIYATSNLASGVPVRFSGSGSGTSYSLTISRVEAEDAATYYCQQWTSNPPTFGGGTKLEIKRTVAAPSVFIFPPSDEQLKSGTASVVCLLNNFYPREAKVQWKVDNALQSGNSQESVTEQDSKDSTYSLSSTLTLSKADYEKHKVYACEVTHQGLSSPVTKSFNRGEC |
|  |  | Kd [2]: 30.5 nM | RTX N109D (antibody, human IgG1, kappa, also called RTX-MT N109D; RTX MT N109D) heavy: not shown light: QIVLSQSPAILSASPGEKVTMTCRASSSVSYIHWFQQKPGSSPKPWIYATSNLASGVPVRFSGSGSGTSYSLTISRVEAEDAATYYCQQWTSNPPTFGGGTKLEIKRTVAAPSVFIFPPSDEQLKSGTASVVCLLNNFYPREAKVQWKVDNALQSGNSQESVTEQDSKDSTYSLSSTLTLSKADYEKHKVYACEVTHQGLSSPVTKSFNRGEC |
| ≤ 15 | > 20 |  | RTX-MT clone 164 (antibody, human IgG1, kappa, V domains shown, Biotinylated in the ELISAs) VH: QVQLQQPGAELVKPGASVKMSCKASGYTFTSYNMHWVKQTPGRGLEWIGAIYPGNGDTSYNQKFKGKATLTADKSSSTAYMQLSSLTSEDSAVYYCARSTYYCGDWYFNVWGAGTTVTVSA VL: QIVLSQSPAILSASPGEKVTMTCRASSSVSYIHWFQQKPGSSPKPWIYATSNLASGVPVRFSGSGSGTSYSLTISRVEAEDAATYYCQQWTSNPPTFGGGTKLEIKR |
|  |  | binding result [5]: no binding | human complement protein C4B (other, also called enhancer protein) KPRLLLFSPSVVHLGVPLSVGVQLQDVPRGQVVKGSVFLRNPSRNNVPCSPKVDFTLSSERDFALLSLQVPLKDAKSCGLHQLLRGPEVQLVAHSPWLKDSLSRTTNIQGINLLFSSRRGHLFLQTDQPIYNPGQRVRYRVFALDQKMRPSTDTITVMVENSHGLRVRKKEVYMPSSIFQDDFVIPDISEPGTWKISARFSDGLESNSSTQFEVKKYVLPNFEVKITPGKPYILTVPGHLDEMQLDIQARYIYGKPVQGVAYVRFGLLDEDGKKTFFRGLESQTKLVNGQSHISLSKAEFQDALEKLNMGITDLQGLRLYVAAAIIESPGGEMEEAELTSWYFVSSPFSLDLSKTKRHLVPGAPFLLQALVREMSGSPASGIPVKVSATVSSPGSVPEVQDIQQNTDGSGQVSIPIIIPQTISELQLSVSAGSPHPAIARLTVAAPPSGGPGFLSIERPDSRPPRVGDTLNLNLRAVGSGATFSHYYYMILSRGQIVFMNREPKRTLTSVSVFVDHHLAPSFYFVAFYYHGDHPVANSLRVDVQAGACEGKLELSVDGAKQYRNGESVKLHLETDSLALVALGALDTALYAAGSKSHKPLNMGKVFEAMNSYDLGCGPGGGDSALQVFQAAGLAFSDGDQWTLSRKRLSCPKEKTTRKKRNVNFQKAINEKLGQYASPTAKRCCQDGVTRLPMMRSCEQRAARVQQPDCREPFLSCCQFAESLRKKSRDKGQAGLQRALEILQEEDLIDEDDIPVRSFFPENWLWRVETVDRFQILTLWLPDSLTTWEIHGLSLSKTKGLCVATPVQLRVFREFHLHLRLPMSVRRFEQLELRPVLYNYLDKNLTVSVHVSPVEGLCLAGGGGLAQQVLVPAGSARPVAFSVVPTAATAVSLKVVARGSFEFPVGDAVSKVLQIEKEGAIHREELVYELNPLDHRGRTLEIPGNSDPNMIPDGDFNSYVRVTASDPLDTLGSEGALSPGGVASLLRLPRGCGEQTMIYLAPTLAASRYLDKTEQWSTLPPETKDHAVDLIQKGYMRIQQFRKADGSYAAWLSRGSSTWLTAFVLKVLSLAQEQVGGSPEKLQETSNWLLSQQQADGSFQDLSPVIHRSMQGGLVGNDETVALTAFVTIALHHGLAVFQDEGAEPLKQRVEASISKASSFLGEKASAGLLGAHAAAITAYALTLTKAPADLRGVAHNNLMAMAQETGDNLYWGSVTGSQSNAVSPTPAPRNPSDPMPQAPALWIETTAYALLHLLLHEGKAEMADQAAAWLTRQGSFQGGFRSTQDTVIALDALSAYWIASHTTEERGLNVTLSSTGRNGFKSHALQLNNRQIRGLEEELQFSLGSKINVKVGGNSKGTLKVLRTYNVLDMKNTTCQDLQIEVTVKGHVEYTMEANEDYEDYEYDELPAKDDPDAPLQPVTPLQLFEGRRNRRRREAPKVVEEQESRVHYTVCIWRNGKVGLSGMAIADVTLLSGFHALRADLEKLTSLSDRYVSHFETEGPHVLLYFDSVPTSRECVGFEAVQEVPVGLVQPASATLYDYYNPERRCSVFYGAPSKSRLLATLCSAEVCQCAEGKCPRQRRALERGLQDEDGYRMKFACYYPRVEYGFQVKVLREDSRAAFRLFETKITQVLHFTKDVKAAANQMRNFLVRASCRLRLEPGKEYLIMGLDGATYDLEGHPQYLLDSNSWIEEMPSERLCRSTRQRAACAQLNDFLQEYGTQGCQV |
